US6391637

What was measured:
[1] = biological target: CD40/Fc fusion protein (human) (UniProt P25942); assay: BIAcore biosensor; CD40/Fc captured on the chip; second experiment
[2] = biological target: CD40/Fc fusion protein (human) (UniProt P25942); assay: BIAcore biosensor; CD40/Fc captured on the chip; second experiment; K2 (site 2); site 1 not detected
[3] = biological target: CD40/Fc fusion protein (human) (UniProt P25942); assay: BIAcore biosensor; CD40/Fc captured on the chip; first experiment
[4] = biological target: CD40/Fc fusion protein (human) (UniProt P25942); assay: BIAcore biosensor; CD40/Fc captured on the chip; first experiment; K1 (site 1)
[5] = biological target: CD40/Fc fusion protein (human) (UniProt P25942); assay: BIAcore biosensor; CD40/Fc captured on the chip; first experiment; K2 (site 2)
[6] = biological target: CD40/Fc fusion protein (human) (UniProt P25942); assay: BIAcore biosensor; CD40/Fc captured on the chip; second experiment; K1 (site 1)
[7] = biological target: CD40/Fc fusion protein (human) (UniProt P25942); assay: BIAcore biosensor; CD40/Fc captured on the chip; second experiment; K2 (site 2)
[8] = biological target: CD40/Fc fusion protein (human) (UniProt P25942); assay: BIAcore biosensor; CD40/Fc captured by goat anti-human IgG1 Fc on the chip, CD40-L construct at increasing concentrations; first experiment
[9] = biological target: CD40 on cells that express CD40 (UniProt P25942); assay: cell-based or functional assay
Sequence of CD40 on cells that express CD40 (P25942 21-277 limits assumed): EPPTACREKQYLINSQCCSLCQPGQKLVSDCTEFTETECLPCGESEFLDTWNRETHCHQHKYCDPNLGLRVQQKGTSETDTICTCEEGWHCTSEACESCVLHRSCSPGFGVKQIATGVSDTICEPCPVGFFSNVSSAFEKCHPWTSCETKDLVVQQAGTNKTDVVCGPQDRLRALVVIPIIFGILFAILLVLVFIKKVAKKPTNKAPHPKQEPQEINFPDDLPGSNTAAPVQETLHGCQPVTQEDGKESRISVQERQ

Sequence of trimeric human CD40-L (oligomerizing zipper fusion, Example 15) (P29965 51-261 limits assumed): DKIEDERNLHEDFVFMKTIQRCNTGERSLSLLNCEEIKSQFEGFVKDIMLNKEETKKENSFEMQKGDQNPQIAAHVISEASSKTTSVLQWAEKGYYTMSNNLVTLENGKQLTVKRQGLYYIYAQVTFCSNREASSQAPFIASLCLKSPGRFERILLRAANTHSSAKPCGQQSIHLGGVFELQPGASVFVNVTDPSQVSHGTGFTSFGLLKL
Sequence of CD40/Fc fusion protein (human) (P25942 21-193): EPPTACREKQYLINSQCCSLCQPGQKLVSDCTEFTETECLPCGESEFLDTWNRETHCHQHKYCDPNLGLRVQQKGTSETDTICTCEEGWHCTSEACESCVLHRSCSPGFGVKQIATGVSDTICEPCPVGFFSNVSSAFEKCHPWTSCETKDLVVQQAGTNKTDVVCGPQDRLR

monomeric human CD40-L, preparation #1 (ligand)
Site2 (mol/mol CD40/Fc) (mol/mol CD40/Fc) [1]: 1.2 | Ka [2]: 4.6e+07 M⁻¹

monomeric human CD40-L, preparation #2 (ligand)
Site2 (mol/mol CD40/Fc) (mol/mol CD40/Fc) [1]: 1.27 | Ka [2]: 1.1e+07 M⁻¹

trimeric murine CD40-L (oligomerizing zipper fusion) (ligand)
Site1 (mol/mol CD40/Fc) (mol/mol CD40/Fc) [3]: 0.02 | Site2 (mol/mol CD40/Fc) (mol/mol CD40/Fc) [3]: 0.44 | Ka [4]: 6e+10 M⁻¹ | Ka [5]: 1.6e+08 M⁻¹

trimeric human CD40-L (oligomerizing zipper fusion, Example 15) (from UniProt P29965 51-261) (ligand)
Site2 (mol/mol CD40/Fc) (mol/mol CD40/Fc) [3]: 0.68 | Site1 (mol/mol CD40/Fc) (mol/mol CD40/Fc) [1]: 0.26 | Site2 (mol/mol CD40/Fc) (mol/mol CD40/Fc) [1]: 0.41 | Ka [4]: 5e+09 M⁻¹ | Ka [5]: 7.5e+07 M⁻¹ | Ka [6]: 6.6e+08 M⁻¹ | Ka [7]: 2.6e+07 M⁻¹ | Site1 (mol/mol CD40/Fc) (mol/mol CD40/Fc) [8]: 0.04

wild type CD40 ligand/zipper domain fusion protein (WT) expressed in yeast
B-cell proliferation (U/µg), Experiment 1; WT [9]: 77 U/µg | B-cell proliferation (U/µg), Experiment 2; WT [9]: 15 U/µg
